{
  "source": "a protein production outcome set (Wang et al. 2014)",
  "data": [
    {"experiment": "label from the status in PepcDB records", "values": [
      {"sequence": "MPVHSRGDKKETNHHDEMEVDYAENEGSSSEDEDTESSSVSEDGDSSEMDDEDCERRRMECLDEMSNLEKQFTDLKDQLYKERLSQVDAKLQEVIAGKAPEYLEPLATLQENMQIRTKVAGIYRELCLESVKNKYECEIQASRQHCESEKLLLYDTVQSELEEKIRRLEEDRHSIDITSELWNDELQSRKKRKDPFSPDKKKPVVVSGPYIVYMLQDLDILEDWTTIRKAMATLGPHRVKTEPPVKLEKHLHSARSEEGRLYYDGEWYIRGQTICIDKKDECPTSAVITTINHDEVWFKRPDGSKSKLYISQLQKGKYSIKHS", "protein production": "not failed"},
      {"sequence": "MPVRTSQASQGNRGKGVGLGLALASAVAFGGSGVAAKPLIEAGLDPLHVVWLRVSGAALVMLPLAVRHRALLRRRPALLIGFGLLAVAGVQACYFAAISRIPVGVALLVEYLAPALVLGWVRFVQRRPVTRAAALGVVLAVGGLACVVEVWSGLGFDALGLLLALAAACCQVGYFVLSDQGSETGEDAPDPLGVIAFGLLIGALVLTVVARPWTMDWSVLGGRADMNGDSVPAALLLGWIVLIATVVAYVTGVLSVRRLSPQVAGVVACLEAVIATVLAWVLLGEHLSAPQIIGGAVVLVGAFIAQSSAPAKPSDGPVTGGGGAERQLSARGTAA", "protein production": "failed"},
      {"sequence": "MPVSLYSGKVALRLLLLQLVTFALLSAVFSLNSVNAAASALGGGLAAWLPNVLFVLFALRHQSHKPADGRVAWSFAIGEALKVFITIALLVVALGVFKAAFFPLGLTYLSVLVMQIVAPIVINRYRN", "protein production": "failed"},
      {"sequence": "MPWLQVRLAITPEQAETYEDALLEVGAVSVTFMDAEDQPIFEPDLGTTPLWSRTHLLALFEADTDETALLAHLALLTGGDLPEHHVEEIADQDWERSWMDNFQPMRFGRRLWIVPSWHAAPEPDAVNLLLDPGLAFGTGTHPTTALCLEWLDGQELAGRQVLDFGCGSGILAIAALLLGAERAVGTDIDPQALEASRDNASRNGIEPARFPVYLPADLPQRQADVLVANILAGPLVSLAPQLTGLVRPGGLLALSGILAEQAEEVRAAYSAHFDLDPTAEREGWIRISGRRRAD", "protein production": "failed"},
      {"sequence": "MQAFRAPSLATIDDVCGTRADGYDGAPLRSIPDFAVIVPMHNEEASVETLVAEIVTACQPVGQFEIVVVDDASSDRTVNAVLSLGDRYPMLRLVRHDRQGGQSAAIHSGVQAARAPVICMLDGDGQNPPDNLPALLAPLLSATATSRLGLVAGQRVGRRDTLGKRLSSRFANGLRARILKDGTRDTGCGLKAFRRDAYLALPYFDHHHRYFPALFNRDGWQVAHVDVTHRARLHGNSHYTNIGRALVGIHDLIGVVWLLRRRKRSSWAETFKTETSPLEHHHHHH", "protein production": "not failed"},
      {"sequence": "MQAGPSAAVENKIITLVESILAQNGIAGGIERDTTFADAGLTSMEMVNLMLAVEAEFDMTLPQSDITPENFTSAATVAQLVSRRQHAQAALEHHHHHH", "protein production": "not failed"},
      {"sequence": "MQAIAIDQFSEPEETQVEQVENPDRNEAGYEVCNQSGENLSVAIAYFDTSIDSYRSEGWWNLDQSKCQFFPNLLDSVDEVYVFAESDQTLWSGDFPFCMQEDAFEYPDANRDRCPSPAYSKGFLKVEVGDAKTWTTNLTPSQLEHHHHHH", "protein production": "failed"},
      {"sequence": "MQDASAWMLALAGLCVGVTAGFFVRLARLCSFGAVEDALMGGDTRRLRIFGLALGIALLGTQALVIAGQLDPGQSNYTAPALPLISIAIGSVLFGIGMAFVGTCGFGSLVRLGGGDLRSFVVILVLGGAAYATLRGMFSGFRITVLERFAITMPEGVNTDLAALTQHLSGIDLRAVIAALGGGLLCLIALGDKRLRRTPRLLAAGVALGLLTVVGWLATTKLADPFAGPVHPQSLTFVSTVGKAVYAGLLNVANFADFGVGTVFGVIAGAFIAAWHTDELRWEAFDDDHEMRRHVAGAALMGFGGILTGGCTIGQGITAGSVMALSWPIAIVGMMFGARIGIAVLVDGSPRELIRRRFDAWRELLQRRRAPALTAANRPNHRPAAPSDAPRPTAPHSLAE", "protein production": "failed"},
      {"sequence": "MQDDVLAKELADKTSKADIDTDAQTVTRLIADEIDTAKQAAESDITQRSRFIETLRQYAGGGSAMAALITRLGYSKADILHLAELWAQERDPELNFIVGSLYDSGFVEVDDKEARSLQWFRKAAELGQADAQNILGYFYLNGKRGIKRDLQKGGQWYELAAAQGNVDALINLGEIYYSGTQVPLDYARAFEFFERAAKMGKSRALNYLAWMYTNGQFVDTDCRKAAELFAQGRTSFADDPHFQVTCEKDRQARAEAVAMREKNLPKLTFNRDRVFGASQGSGYACELEFVVKTDRVSSIENLRVSLALKNKAGAMSQQVIAFEPFGLNTQNRNLQGYKSDTLRESTLQPIYQPEFCDVDSYSVTAVTGIVNGKEMDILKAGIFL", "protein production": "failed"},
      {"sequence": "MQDEYYMARALKLAQRGRFTTHPNPNVGCVIVKDGEIVGEGYHQRAGEPHAEVHALRMAGEKAKGATAYVTLEPCSHHGRTPPCCDALIAAGVARVVASMQDPNPQVAGRGLYRLQQAGIDVSHGLMMSEAEQLNKGFLKRMRTGFPYIQLKLGASLDGRTAMASGESQWITSPQARRDVQLLRAQSHAILTSSATVLADDPALTVRWSELDEQTQALYPQQNLRQPIRIVIDSQNRVTPVHRIVQQPGETWFARTQEDSREWPETVRTLLIPEHKGHLDLVVLMMQLGKQQINSIWVEAGPTLAGALLQAGLVDELIVYIAPKLLGSDARGLCTLPGLEKLADAPQFKFKEIRHVGPDVCLHLVGA", "protein production": "not failed"},
      {"sequence": "MQDFDFSFNPKACEGCGAKCCVGESGYIFLNIQEMQQISAFLKLELEEFSQKYVKKVGYKFSLLEKDAKELGLACVFLDLETKKCQIYSVRPKQCQTFPFWEGVKTFSKEQKEAFCQSCPGITQKTKETKVR", "protein production": "failed"},
      {"sequence": "MQDFGDNSGRAPAAGRSWRNTPSSFGVVAIAFHWTIAVLFVAQLALGYLMSRDSIDPVLQFNFFQYHKSIGFLVLALAVPRCLWSVFSRKPRAVDGEGPVSRFAARVAHSALLFLTLAVPLAGWAVASTSPLQIPSYVFDLVVVPGLPMTISDQAEAFWSDVHATLAYLAAVIVLLHVIAALWHHFIRRDPTLRRMLPLPDTTDNSRREISSGQ", "protein production": "failed"},
      {"sequence": "MQDIVRKTIDNLNRNHMAGYYTQSIQQLHELLYRLMPEGQTVGCGDSVTLEQSGVYEYVRNHSYNFLDKYRTGLNREEKREIYLQNFRADTFLTGINAVTIDGKLFNIDGNGSRVAPIIYGPKQVIAVVGTNKIVKSVDDAIWRTRQIAAPLDARRLAKETPCVKLAKCIDCHHSQRICNDFVLITGQFEKGRIKVIFIEGDYGY", "protein production": "failed"},
      {"sequence": "MQDLGIAFQTAVGDSGGNLDGRTPLPSNDWLMKRNCSLTPRQAGWFYFSIVCFSTAIAVFFAVWLGAWLVLPFAGLELLGLGIALLAYARHAADYERVSVTDGMLVVETASASRITREVFNPRWVRVELGESFRAPVVLRSDKRSVQVGLYLDPYRRRKFAQELAVALQRV", "protein production": "failed"},
      {"sequence": "MQDQTEAVRFLSDPATHGGAPVERVETHGAFVFLAGSQAFKIKRAVRYDYMDLSTLALRHRMLARELELNRPAAPAIYRDLVAVTREPEGLALGGPGEPVEWVLRMWRFPAEDELSAVAERGALDDRLAARLGRSLAAYHRAAPVRSSDGAALVEAILDELGRVFAGMEDGLGAERIARFGTQARDMLARTKPLLRARSEAGRVRRGHGDLHLRNLVLIEGEPVPFDALEFDETLGTCDILYDLAFLLMDLDHRGLTRAAGIALAAWLFEMRGDEDGGLAALPLFLAVRAAIRGMVLVQTDAARGAPGHSDAEARGLLDEALRALSPPPPRLLAIGGVSGSGKTVLAAALAPRLGLPPGAIHLRSDLERKSRAGVPTDRRLGGAAYGEDARHAVYGQMLARAGAILAAGWPVILDATFLDPADRAAARALAAERGVPLEGLWLEAPPDLLVARVSTRRSDASDADEAVVRAQLARQPRAGDWRTLDTGRPPEEVAHSACRALGLD", "protein production": "failed"},
      {"sequence": "MQDRCPHQDHRSIPTIMPDLEPDTVSALEAPEFAPAQFVRWFREVAPYVHAFRGKTFVVAFGGELVQAGALNVLVQDLSLLSALGIHLVLVHGSRPQVNEQLRLKGYTQQFGRGLAPTDPAALECAKEAAGEIRLDIEAAFSQGLPNTPMSHSHIRVLSGNFVTARPTGVVDGIDYKHTGQVRKIDVDALKFAIEQGSVVLLSPLGFSPTGDAFNLAMEDLATSVAVALRAEKLIFLSGEPGVLDGNGAVDTELARVDADALLARGELDEDTTYFLQHASLAVKRGVARAHLVPYALDGSVLLEIFTHDGVGTMVVEDTLDDLRAATLDDVGAILSLIEPLETDGTLVPRPRSAIERDVERFTVLEHDGVIYGCAALYPFPEDQMAEMACLIVHPEWQGSGEGEILLRHMESRARASGARRLFVLTTRTSHWFMKRGFVRGGVADLPRDKQNNYNRSRNSLVFIKKL", "protein production": "failed"},
      {"sequence": "MQDSSSQHEPLWDRFGDLTVWKRGDQRAPHKPLLILYALGRLAQGDRWLRFSDIEEDLTDLLIEFGPPRQSHHPEYPFWHLRSDGVWVVPEADVLEMRQSASNPPKTELREKEARGGFSDDIHQAFRNDSELRRGIARLLLSSHFPTSLHEDIATAVSLDLEGAASERRDPEFRTQVLQAYQYRCAICGFNLQLGMSGTPIGVEAAHIKWKQARGPDEISNGIALCALHHKMLDKGALHVTEDLRLFVSEAVHGSQPHLSRLQDRHGNRIHTPQRETYYPNGEVVTWHVNEVFRGPPRV", "protein production": "failed"},
      {"sequence": "MQEKIHWITNLRGIACMMVVMIHSTSWYITHPHAITLLQWDIANLLNSASRVSVPLFFMISGYLFFGERSAQPRHFWRIGLCIAFYSALSLLYITLFTHINVELSLKNLLQKPVFYHLWFFFAITVIYLLSPLLQVKSTSSTMLLALMAILGILANPNMVSVKAAGIEWLPVNLYINGDTFYYVLYGVLGRAIGTLDTDKKWLTPLCAALFIAAVWVISRGTLHELRWRGDFGDTWYLYCGPAVFVCAVTLLTLAKNWLNARPLPGIACIARHSLGIYGFHALIVHALRASHLELSRWPLLDIVWIFSAALLGSLLLSGLVQRIDSRRLVS", "protein production": "failed"},
      {"sequence": "MQELSPAELGEQVQDDDGPLVLDIRHEEDFQEWHIPGSRNVDVYDELTDDPEQAIEPLDDLPSDEQIVTVCAAGVVSQTATAVLRELGYDAVTLTDGMNGWSRVHRHAELPVDVDGTLVQVARPGKGCLSHVLVSDGEAAVFDPSHYLNEYDTVLDEYDAELVGVFDTHAHADHVSGAADLADRHDVPYYLHQKDALAVDATPLEDGQTVTVGRLDIEVIHTPGHSEGSVSFDVEGAALLTGDTLFHDSVGRVELGVEAGIEDADVEGNAATLYESLQRLLDRPDDALVLPAHDPGSPEPPVAATLAEVRERNDDLGRDREAFVEELASDIPDHPPNFERVKRTNVGQESVPEEELAELELGPNNCAAE", "protein production": "failed"},
      {"sequence": "MQEQRQQLLRSLEALIFSSEEPVNLQTLSQITAHKFTPSELQEAVDELNRDYEATGRTFRIHAIAGGYRFLTEPEFADLVRQLLAPVIQRRLSRSMLEVLAVVAWHQPVTKGEIQQIRGASPDYSIDRLLARGLIEVRGRADSPGRPLQYGTTEVFLDLFHLPSLKDLPKLREIKEILQEHEEQQYLAADGDLPVAADEDEKPRMERIE", "protein production": "not failed"}
    ]}
  ]
}
